Article PMC12282171, “VCY mediates inhibition of PFV replication via interaction with the transcription activator Tas” (Journal of Virology, 2025)

Target: His-VCY (human, UniProt O14598 1-125)
Experiment: pull-down; purified His-VCY added to purified GST-Tas or GST coupled to glutathione sepharose, 3 h at 4 °C; western blot
Conditions: both partners purified

B1: GST-Tas (natural protein)
chain: MDSYEKEESVASTSGIQDLQTLSELVGPENAGEGELTIAEEPEENPRRPRRYTKREVKCVSYHAYKEIEDKHPQHIKLQDWIPTPEEMSKSLCKRLILCGLYSAEKASEILRMPFTVSWEQSDTDPDCFIVSYTCIFCDAVIHDPMPIRWDPEVGIWVKYKPLRGIVGSAVFIMHKHQRNCSLVKPSTSCSEGPKPRPRHDPVLRCDMFEKHHKPRQKRPRRRSIDNESCASSSDTMANEPGSLCTNPLWNPGPLLSGLLEESSNLPNLEVHMSGGPFWEEVYGDSILGPPSGSGEHSVL
notes: also called recombinant GST-Tas; pGST-Tas; source: E. coli BL21, purified (GST column)
Q: Does B1 bind?
A: binds
